From patent US20190106498A1, “TREATMENT FOR ACUTE MYELOID LEUKEMIA” (priority 2017, published 2019)

What was measured:
[1] = ARGX-110 concentration in bone marrow aspirates versus plasma; assay type: in vivo, human
Method: Concentration of ARGX-110 in bone marrow aspirates was measured in limited samples and compared to the matching plasma samples.

soluble CD27 = test: Serum soluble CD27 ELISA in patients; assay type: in vivo, human; settings: representative patient
Method: FIG. 10 The serum samples were analysed using an ELISA (Duoset ELISA, human CD27/TNFRSF7 (cat: DY382-05, R&D Systems). Concentration of soluble CD27 in the sample is calculated from a calibration curve. The method allows measurement of the serum concentration of natural human soluble CD27 by means of a sandwich ELISA method. Goat Anti-Human CD27 Capture antibody is coated on a microplate and nonspecific binding sites are blocked. Human serum samples are applied and bound human soluble CD27 is detected and visualized by the subsequent additions of Biotinylated Goat Anti-Human CD27 Detection antibody, Streptavidin-HRP and the mixture of the colour reagent H2O2 and the chromogenic substrate tetramethylbenzidine (TMB).
To assess the effect of anti-CD70 monotherapy and combination therapy on the CD27/CD70 interaction as well as to further explore the effect on blast percentage and stemness, patients' soluble CD27 levels were also measured.

[2] = in vivo
Method: Subjects received a loading dose of ARGX-110 on Day −14, followed by administration of ARGX-110 in combination with standard doses of AZA. Doses of ARGX-110 were administered intravenously every 2 weeks (loading dose at Day −14 and further doses on Days 3 and 17) in combination with standard doses of AZA to determine the dose limiting toxicity (see FIG. 4). The first patient of each cohort was monitored until day 7 before a second patient was included. […] The ARGX-110 dose level in the first cohort in Phase I was 1 mg/kg body weight.
All subjects in the study received a single loading dose of ARGX-110 on Day −14, at the same dose level as the bi-weekly dose. Subjects in Phase I of the study received one of the following treatments: • Cohort 1: 1 mg/kg body weight IV on Days 3 and 17 of a 28-day cycle • Cohort 2: 3 mg/kg body weight IV on Days 3 and 17 of a 28-day cycle • Cohort 3: 10 mg/kg body weight IV on Days 3 and 17 of a 28-day cycle • Cohort 4: 20 mg/kg body weight IV on Days 3 and 17 of a 28-day cycle

CD70 = target: T1, CD70 (Homo sapiens, UniProt P32970); settings: cited from earlier work
T1 sequence (P32970 1-193): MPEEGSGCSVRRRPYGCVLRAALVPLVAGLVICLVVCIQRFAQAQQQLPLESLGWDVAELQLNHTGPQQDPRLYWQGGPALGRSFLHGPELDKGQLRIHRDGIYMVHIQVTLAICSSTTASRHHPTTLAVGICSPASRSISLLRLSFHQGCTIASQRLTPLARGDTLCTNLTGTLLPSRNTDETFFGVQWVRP

AML LSCs = test: Colony plating assay of AML LSCs; assay type: cell-based, human; settings: P6, P8, P11; all disease risk categories
Method: (§1) FIGS. 3A-3F Anti-CD70/decitabine co-treatment reduces re-plating capacity of human CD34+CD38− AML stem/progenitor cells. […] Colonies and cells were enumerated after 14 days. (FIG. 3A) Colonies per 1×10^3 plated cells. (FIG. 3B) Cells per colony. (FIG. 3C) Serial re-plating experiments. (d-f) FACS-purified lin-CD90+CD34+CD38− stem/progenitor cells from BM of “healthy” donors were cultured and plated in methylcellulose as described in (a-c). (FIG. 3D) Colonies per 1×10^3 plated cells. (FIG. 3E) Cells per colony. (FIG. 3F) Serial re-plating experiments. Data are represented as mean±S.D. Statistics: One-way-ANOVA. Dunnett's post-test (vs. αCD70/D); *, P<0.05; **, P<0.01; ***, P<0.001.

Numb = Numb expression in purified AML blasts of patients; assay type: in vivo, human; settings: monotherapy at C1D1; combination at C4D1
Method: FIGS. 8A-8B Purified AML blasts (FACS gate: CD45^dim SSC^low AV^−CD4^−CD8^−CD19^−) were fixed, permeabilized and cells incubated overnight with α-Numb antibody, followed by staining with a fluorescently labeled secondary antibody. DAPI was used to counterstain for DNA. Samples were acquired on an ImageStreamX® Mark II imaging flow cytometer (Amnis/EMD Millipore) and analyzed using INSPIRE™ and IDEAS® software (Amnis/EMD Millipore). FIG. 8A) Total Numb expression (Mean fluorescence intensity) was determined across the slide for bone marrow samples of one patient harvested at baseline (“screening”), after ARGX-110 monotherapy (C1D1) and after combination treatment (C4D1). FIG. 8B) Symmetrically (SD) and asymmetrically dividing (AD) cells were scored for a bone marrow patient sample at baseline (“before”) and after ARGX-110 monotherapy (after αCD70).
The level of asymmetric division in a population of LSCs can be determined by measuring the level of a cell fate determinant such as the Numb protein (Riether et al., J Exp Med. 2017 February; 214(2): 359-380, incorporated herein by reference). Increased Numb expression is indicative of an increase in asymmetric division and therefore an increase in myeloid differentiation and decreased LSC populations.

[3] = test system: CD70-expressing tumor cells; settings: cited from earlier work
[4] = Serum pharmacokinetics of ARGX-110 (ELISA); assay type: in vivo, human
Method: FIG. 11 The serum concentration of ARGX-110 was analyzed using a validated enzyme-linked immunosorbent assay (ELISA) method. Individual patient PK plots are provided for 10 mg/kg cohort. The PK plot presents data for ARGX-110 cycle1 (D-14 pre-dose until Cycle1 D1 pre-dose).
The serum concentrations of ARGX-110 were analysed using a validated enzyme-linked immunosorbent assay (ELISA) method. The following pharmacokinetic parameters were assessed: • Cmax: maximum observed concentration; Ctrough: trough concentration; AUC∞: area under the serum concentration-time curve from time zero to infinity; AUCtau: area under the serum concentration-time curve during the dosing interval; Vd: apparent volume of distribution; CL: total systemic clearance of drug after IV administration; t1/2: half-life.
The serum concentration of ARGX-110 was analysed using a validated enzyme-linked immunosorbent assay (ELISA) method. FIG. 11 provides individual patient PK plots for the 10 mg/kg cohort. The PK plot presents data for ARGX-110 cycle 1 (D-14 pre-dose until Cycle1 D1 pre-dose).

healthy stem cells = assay type: cell-based, human
Method: as §1

[5] = patient 1001005, 3 mg/kg, Cycle 7 Day 2
[6] = patient 1001007, 10 mg/kg, Cycle 4 Day 1

B1: ARGX-110: IgG1 anti-CD70 antibody with defucosylated Fc region; VH SEQ ID NO: 4, VL SEQ ID NO: 8 (antibody, V domains shown)
VH: EVQLVESGGGLVQPGGSLRLSCAASGFTFSVYYMNWVRQAPGKGLEWVSDINNEGGTTYYADSVKGRFTISRDNSKNSLYLQMNSLRAEDTAVYYCARDAGYSNHVPIFDSWGQGTLVTVSS
VL: QAVVTQEPSLTVSPGGTVTLTCGLKSGSVTSDNFPTWYQQTPGQAPRLLIYNTNTRHSGVPDRFSGSILGNKAALTITGAQADDEAEYFCALFISNPSVEFGGGTQLTVLG
modifications: IgG1, defucosylated Fc; Custom antibody fragment
CARGX-110 BM aspirate [1, 5]: 33.1 µg/mL | CARGX-110 plasma [1, 5]: 37.3 µg/mL | CARGX-110 BM aspirate [1, 6]: 117.7 µg/mL | CARGX-110 plasma [1, 6]: 126.6 µg/mL | concentration in bone marrow aspirates versus plasma ([1]; patients 1001005 and 1001007): comparable to the plasma levels | sCD27 levels after the end of treatment (EOT) (soluble CD27): rise after the end of treatment | sCD27 levels (soluble CD27; monotherapy C1D1 vs Loading, then combination therapy): reduces sCD27 levels compared to before treatment | Lung infection, Grade 3-5 adverse events: Total [2]: 1 | Tooth Infection, Grade 3-5 adverse events: Total [2]: 1 | Lung infection, Grade 3-5 adverse events: (patients) ([2]; 1 mg/kg): 1 (1) | Lung infection, Grade 3-5 adverse events: Events ([2]; 1 mg/kg): 1 (1) | Tooth Infection, Grade 3-5 adverse events: (patients) ([2]; 3 mg/kg): 1 (1) | Tooth Infection, Grade 3-5 adverse events: Events ([2]; 3 mg/kg): 1 (1) | CD70-induced CD27 signalling (CD70): inhibit CD70-induced CD27 signalling | interaction of CD70 with CD27 (CD70): inhibit the interaction of CD70 with its receptor CD27 | number of colonies formed by AML LSCs (AML LSCs): reduce the number of colonies | Numb expression (Numb): increased | antibody dependent cellular phagocytosis (ADCP) [3]: increase antibody dependent cellular phagocytosis (ADCP) of CD70-expressing cells | lysis via ADCC and CDC [3]: lyse CD70-expressing tumor cells | ADCC functionality ([3]; defucosylated Fc (Potelligent)): increased ADCC functionality compared to a fucosylated counterpart | half-life ([4]; 10 mg/kg): approximately 9.2 days | Cmax and AUC over the dose range studied ([4]; all cohorts): dose proportionality | effect on healthy stem cells (colonies, cells per colony, re-plating) (healthy stem cells): no effect on healthy cells compared to vehicle alone
